Laboratory results as given in paper PMC11330527, “Structure and dimerization properties of the plant-specific copper chaperone CCH” (Scientific Reports, 2024).

What was measured:
[1] = molecular target: the molecule itself; assay: MST; both copies in the apo (copper-free) state; Alexa Fluor 488-labeled chaperone 20 nM, unlabeled chaperone 4.6 to 400 nM; 300 mM NaCl, 50 mM HEPES, 0.05% Tween-20, pH 7.5, no DTT; room temperature; one-site binding model; apparent KD; dimer to monomers
[2] = molecular target: the molecule itself; assay: MST; only one copy preloaded with copper (CCH: labeled copy copper-loaded, unlabeled copper-free; CCHΔ: unlabeled copy copper-loaded, labeled copper-free); labeled chaperone 20 nM, unlabeled 0.4 to 6.25 µM; 300 mM NaCl, 50 mM HEPES, 0.05% Tween-20, pH 7.5; room temperature; one-site binding model; apparent KD; dimer to monomers

Protein	Kd [1]	Kd [2]
copper chaperone CCH (full-length CCH) from Arabidopsis (natural protein, Arabidopsis thaliana, UniProt O82089 1-120, looked up, Alexa Fluor 488 NHS ester on amines (only the labeled copy in MST), Used copper-free (apo) or preloaded with Cu(I) from Cu(I)-(BCA)2; A TEV site follows the His-tag; Vector pETEV16b-CCH; also called apo-CCH; Cu(I)-CCH; source: E. coli, purified (IMAC, TEV digestion, SEC); not shown: 10xHis, N-terminal, cleaved) MAQTVVLKVGMSCQGCVGAVNRVLGKMEGVESFDIDIKEQKVTVKGNVEPEAVFQTVSKTGKKTSYWPVEAEAEPKAEADPKVETVTETKTEAETKTEAKVDAKADVEPKAAEAETKPSQ	18 ± 6 nM	78 ± 39 nM
CCHΔ, truncation mutant of CCH lacking the C-terminal extension (domain or fragment, Arabidopsis thaliana, UniProt O82089 1-70, looked up, also: Alexa Fluor 488 NHS ester on amines (labeled copy only), Used copper-free (apo) or preloaded with Cu(I) from Cu(I)-(BCA)2; A TEV site follows the His-tag; source: E. coli, purified (IMAC, TEV digestion, SEC); not shown: 10xHis, N-terminal, cleaved) MAQTVVLKVGMSCQGCVGAVNRVLGKMEGVESFDIDIKEQKVTVKGNVEPEAVFQTVSKTGKKTSYWPVE	57 ± 9 nM	169 ± 51 nM
